According to the RNAGym collection of RNA variant scans (doi:10.7554/elife.80360):

B1: HDV Ribozyme (parent)
chain: GGCCGGCAUGGUCCCAGCCUCCUCGCUGGCGCCGGCUGGGCAACAUUCCGAGGGGACCGUCCCCUCGGUAAUGGCGAAUGGGACCCA

Variants of: B1
Experiment: self-cleavage, relative activity (ratio to wild type); higher = more cleavage; co-transcriptional

Variant	self-cleavage
G34A C64A	0.128
G34A G73C	0.147
C24U C44A	0.277
G25A C36U	0.153
G40C U65A	0.326
G10A G35U	0.499
C4G C84G	0
G11A U12G	0.0875
G38A G39A	0.0963
C15U U37A	0.196
G67U C84G	0.609
C14G G55C	0.665
G31C A87G	0.226
C24G G53U	0.117
U65C A77G	0.831
G50C C64G	0.383
G17A U27A	0.609
G28C A42G	0
C61G U72C	0.401
G10A G68U	0.562
A16C G39U	0.244
C44G C85G	0.831
C3U U46G	0.446
G52U U69G	1.19

Variant	self-cleavage
C22A G74U	0.0213
U46G G67C	0.208
A43C C75A	0.298
G38U U72G	0.145
G39A A43C	0.185
C33U C63G	0.698
C15G U20C	0.166
C3G U69A	0.582
U12A G35U	0.0225
C4G G38A	0
C13G C48A	0.26
C49A U60G	1.33
C3U A43G	0.342
G5U G31A	0.135
U9A C62G	0.939
C41A C75U	0.145
C24G C32U	0.0773
C14G A43C	0.0504
A8U G35A	0.426
G6A C30U	0.432
C7U C57U	0.927
A42C A43G	0.0898
C13A C62U	0.214
A56G C62A	0.467

Variant	self-cleavage
G29U C75U	0.0767
A42U G50C	0.285
G10U G55A	0.893
C7A G81A	0.0302
G6A A78U	0.0297
C3A C21A	0.0339
A16C A56G	0.776
G5U U23G	0
C3A C63G	0.285
A71G G81C	0.131
G54C G59A	0.926
C64U C84A	0.801
U20A C30U	0.0415
A51G A78G	0.674
G17U C21U	0.13
U47A G74A	0.688
A8C G59C	0.923
G59A C84A	0.929
G25C G59C	0.131
A8U C44U	0.415
U37A G50U	0.128
C30U C41G	0.212
G1U A43G	0.147
C21U C49A	0.291

Variant	self-cleavage
C7U C84U	0.686
C19G C58U	0.0272
G31A A56G	0.369
C7A C62G	0.0665
G29U G81A	0.12
A16C G73A	0.504
G1A G35U	0.158
C4U G67U	0.855
G5C A87G	0.124
U20G G59A	0.268
C24U C57U	0.538
G55C C84U	0.817
G76C G80C	0.093
G11A A70C	0.175
C3U U27C	0.262
G28C G55U	0.196
C24G G80C	0.271
G73U G82C	0.157
C14A C63A	0.755
C4U U47C	0.554
G34U C62G	0.117
U79A G80A	0.234
G11C G34U	0.0302
C57G G74A	0.277

Variant	self-cleavage
C7A G55C	0.778
A16G U37A	0.115
G50U A83C	0.375
C3U C41A	0.807
C57A C63G	0.945
C19G U65A	0.0354
C64U G82C	0.208
G34C A51C	0.107
G35C U65A	0.233
U9C C58A	1.11
G40U U72C	0.176
G6A A42C	0.0831
C21U A77C	0.125
C21A G31C	0.0817
C14G C85G	0.415
G31A G50U	0.442
G11A U20C	0
A45U A56G	0.806
G34C U65C	0.573
G28U U60A	0.17
U9A G81U	0.332
A42U A70G	0.571
C26G C66U	1.16
G38U G68U	0.119

Variant	self-cleavage
C57G A70C	0.959
C3U U79C	0.342
U37C G81A	0.283
G1U A45G	0.291
G35C A42U	0.0339
C63U G73A	0.831
G28A C64G	0.108
C24A C33A	0.0811
C32U C63U	0.817
C30A G40U	0.183
G52C C57G	0.866
C32G G76U	0.122
U12G U27A	0.831
C18G C21G	0.175
C18U A77G	0.623
C48A G76A	0.727
C33A G53U	0.277
G25U A56G	0.0554
G5C U69A	0.111
G11U C63U	0.364
C26U C84A	1.15
G17U A83U	0.34
C18U C62G	0.543
U20A U46C	0

Variant	self-cleavage
U27G U79C	0.308
C21A A51U	0.0369
G28A U60C	0.0811
U20G G81U	0
A43G A77C	0.0723
C26A U79C	0.469
U72A A78U	0.161
G38U A42G	0
G68C U69G	1.21
C13A A71U	0.0615
G11U U79A	0.148
A42G C44G	0
U12G U60G	0.831
G5U G40A	0.364
G28U C36U	0
G34A G35A	0.145
G2C C32A	0.0712
C3U A78C	0.04
G38A A42U	0
G6U C32U	0.787
G11U G50U	0.583
U60C U65G	0.944
U37C G67A	1
